Assay results as given in article PMC4066673.

Substrate: CCCCCCCCCCCCCC(=O)SCCNC(=O)CCNC(=O)[C@H](O)C(C)(C)COP(=O)(O)OP(=O)(O)OC[C@H]1O[C@@H](n2cnc3c(N)ncnc32)[C@H](O)[C@@H]1OP(=O)(O)O
Assay: purified protein
Conditions: pH 7.5; 25.0 °C

B1: hTHEM4 (Homo sapiens) (protein)
chain: SSEEVILKDCSVPNPSWNKDLRLLFDQFMKKCEDGSWKRLPSYKRTPTEWIQDFKTHFLDPKLMKEEQMSQAQLFTRSFDDGLGFEYVMFYNDIEKRMVCLFQGGPYLEGPPGFIHGGAIATMIDATVGMCAMMAGGIVMTANLNINYKRPIPLCSVVMINSQLDKVEGRKFFVSCNVQSVDEKTLYSEATSLFIKLNPAKSLT
B1 gave a kcat/Km of 1.7e+06 M⁻¹ s⁻¹.
